{"source": "paper doi:10.1101/2021.10.01.462734", "key": {"[1]": {"biological_target": "ancGR2-LBD (ancient variant of the glucocorticoid receptor ligand-binding domain), wild type, DEX-bound", "assay": "cross-linking"}, "[2]": {"biological_target": "ancGR2-LBD (ancient variant of the glucocorticoid receptor ligand-binding domain), wild type, DEX-bound", "assay": "SPR"}, "[3]": {"biological_target": "GFP-mGR Y545A (mouse)", "assay": "number and brightness"}, "[4]": {"biological_target": "GFP-mGR GR^dim/Y545A double mutant (mouse)", "assay": "number and brightness"}, "[5]": {"biological_target": "ancGR2-LBD Y545C mutant, DEX-bound", "assay": "cross-linking"}, "[6]": {"biological_target": "ancGR2-LBD Y545C mutant, DEX-bound", "assay": "SPR"}}, "note": "Several values for one entry are separate records, joined by “and”; a condition that tells them apart may be missing. Equal entries are not always repeated."}
{"substance": "ancGR2-LBD (ancient variant of the glucocorticoid receptor ligand-binding domain), wild type, DEX-bound (domain or fragment)", "values": [{"measurement": "stoichiometry N", "setting": "[1]", "result": "2 and 4"}, {"measurement": "Kd", "setting": "[2]", "result": 15.3, "unit": "µM"}, {"measurement": "kD1 (multisite model, first of two independent binding sites)", "setting": "[2]", "result": 2.2, "unit": "µM"}, {"measurement": "kD2 (multisite model, second of two independent binding sites)", "setting": "[2]", "result": 27.9, "unit": "µM"}]}
{"substance": "GFP-mGR Y545A (natural protein)", "values": [{"measurement": "stoichiometry N", "setting": "[3]", "result": 4}]}
{"substance": "GFP-mGR GR^dim/Y545A double mutant (natural protein)", "values": [{"measurement": "stoichiometry N", "setting": "[4]", "result": 3}]}
{"substance": "ancGR2-LBD Y545C mutant, DEX-bound (domain or fragment)", "values": [{"measurement": "stoichiometry N", "setting": "[5]", "result": 2}, {"measurement": "kD1 (multisite model, first binding site)", "setting": "[6]", "result": 0.8, "unit": "µM"}]}
